Reference: US8372810B2, “Anti-tumor drug, medicament, composition, and use thereof” (Gene Signal International SA, priority 2007, dated 2013)
Where “and” joins values, the source holds several entries; their conditions need not be identical. Equal values may be shown once.

Assays:
tumor cell line Calu-6 = test: Proliferation of other cell lines: Calu-6; format: cell-based, human; details: even at high concentration
HUVEC [1] = test: Wound assay, migration of human endothelial cells; format: cell-based; details: 18 hours; 497C-T2 0.83 and 1.66 μM; 497C-T3 2.4 μM; 497C-T4 3.52 μM; 497C-T5 3.65 μM; C-terminal tail 4.92 μM
Procedure: Cell migration was tested by the wound assay described by Sato and Rifkin (J Cell Biol. 1988; 107:1199) with few modifications. HUVEC grown in growth medium EGM-2MV (Cambrex) were seeded in 24-well plates at 80 000 cells per well in 500 μL of growth medium and grown to confluence at 37° C. in a humidified atmosphere containing 5% CO2. Cells were scrapped with a plastic tip on one line only. After wounding, the culture medium was changed for fresh medium (control, FIG. 3a) or fresh medium supplemented with: • FIG. 3b: 497C-T2 20 μg/mL (0.83 μM) • FIG. 3c: 497C-T2 40 μg/mL (1.66 μM) • FIG. 3d: 497C-T3 48 μg/mL (2.4 μM) • FIG. 3e: 497C-T4 60 μg/mL (3.52 μM) • FIG. 3f: 497C-T5 61 μg/mL (3.65 μM) • FIG. 3g: C-terminal tail 63 μg/mL (4.92 μM)
After 18 hours of culture, cells were observed and photographed under the inverted microscope (Analysis, Olympus, Rungis, France).

tumor cell line NCI-H460 = test: Proliferation of other cell lines: NCI-H460; format: cell-based, human; details: even at high concentration
HUVEC cells = test: Inhibition of endothelial cell proliferation in vitro (MTT); format: cell-based, human
Procedure: HUVEC cells were cultured to confluency in complete EGM2-MV medium (Cambrex) at 37° C. and in 5% CO2 humidified atmosphere. Cells were then collected by trypsine-EDTA digestion (Versene, Eurobio). After 5 min, the enzymatic reaction was stopped by adding 3 ml of the culture medium containing 5% FCS. Cells were then centrifuged at 220 g for 10 min at room temperature, washed twice with 5 ml of culture medium, suspended in complete culture medium, counted and adjusted to 50 000 cells/ml. One hundred μL per well were then distributed to a 96-well cell culture grade micro-plate (5 000 cells/well) and incubated with different concentrations of the purified protein 497C-T2 in Tris-HCl 20 mM buffer (pH 8), containing 150 mM NaCl and urea 2M; this buffer was used as control.
After 42 hrs at 37° C., cell proliferation was measured using thiazolyl blue tetrazolium bromide (MTT) method. Briefly, MTT (Sigma) was dissolved in PBS at 5 mg/ml, the solution was filtered (0.22 μm) and 10 μl were added to each well of the 96-well micro-plates. After 3 hrs of incubation at 37° C., 5% CO2 humidified atmosphere, the micro-plates were centrifuged at 220×g for 10 min, the supernatant was discarded, and the crystals dissolved by the addition of 100 μl of DMSO to each well. The optical density (OD) at 570 nm was then measured using μQuant micro-plate reader (Bio-Tek Instrument gmbh, Colmar, France) coupled to the KC4 (Bio-Tek) software.

[2] = test system: fibroblast cell line MRC5; test: Proliferation of other cell lines: MRC5; format: cell-based; details: even at high concentration
CHO = test: Proliferation of other cell lines: CHO; format: cell-based; details: even at high concentration
HUVEC [3] = test: In vitro angiogenesis of HUVEC induced by FGF2 and VEGF on Matrigel; format: cell-based, human
Procedure: The purified proteins 497C-T2, 497C-T3, 497C-T4 and 497C-T5 were tested in vitro on angiogenesis of HUVEC induced by FGF2 and VEGF on Matrigel.
24 wells plates were prepared with 250 μL of BD Matrigel™/well and then incubated 30 minutes in incubator.

CALU-6 tumors = test: CALU-6 non-small cell lung cancer xenograft in Swiss Nude mice, tumor growth; format: in vivo
Procedure: CALU-6 cells were cultured as adherent cells in complete EMEM medium (Ref. CM1MEM18-01, batch No. 462502, Eurobio, France) 10% fetal calf serum (FCS; Ref. CVFSVF00-01, batch No. 513021, Eurobio, France) under a 37° C., 5% CO2 humidified atmosphere. They were amplified in 75 cm^2-flasks to reach 90×10^6 cells.
At D0, CALU-6 cells (human lung carcinoma) were collected from 75 cm^2-flasks by removing the medium and adding 3 ml of trypsine-EDTA (Ref. CEZTDA00-0U, batch No. 633920, Eurobio, France). After 5 min of incubation at 37° C., cells had detached from the plastic and the enzymatic reaction was stopped by adding 3 ml of EMEM medium containing 10% fetal calf serum. Cells were then centrifuged at 700 g for 5 min at room temperature. They were resuspended in serum-free EMEM culture medium. Cells were counted and viability assessment by Trypan Blue exclusion (Ref. CSTCOL03-OU, batch No. 434511, Eurobio, France). The number of viable CALU-6 cells was >99%. The number of cells was then adjusted to 25×10^6 cells/ml in serum-free medium.
CALU-6 cells 5×10^6 cells/mouse in 200 μl of serum-free medium) were then implanted subcutaneously in the right flank of each mouse.
At D12 post-implantation of the CALU-6 cells, the thirty mice were randomized into six groups of 5 mice. Tumor volumes had reached 228 to 468 mm^3 and mean tumor volumes were not statistically different between groups after randomization.
Mean tumor volumes (MTV), mean relative tumor volume (MRTV) and tumor growth inhibition (T/C) were calculated as for example 7.

[4] = IP Q2DX8, CDDP 5 mg/kg (G2), 497C-T2 10 mg/kg (G3), 497C-T2 10 mg/kg + CDDP 5 mg/kg (G4)

B1: 497C-T2: entire LEL domain of protein 497C, SEQ ID NO:3 (112 amino acids); as produced SEQ ID NO:8, with N-terminal His-Tag and C-terminal tail, 24 kD (protein, listed as Homo sapiens)
chain: MHHHHHHSSGLVPRGSGMKETAAAKFERQHMDSPDLGTDDDDKISGFVFRHEIKDTFLRTYTDAMQTYNGNDERSRAVDHVQRSLSCCGVQNYTNWSTSPYFLEHGIPPSCCMNETDCNPQDLHNLTVAATKVNQKGCYDLVTSFMETNMGIIAGDRASPQPWRYRIRILAPSTSLRPHSSTTTTTTXIRLLTKPERKLSWLLPPLSNN
modifications: X: residue not identified in the source
Tumor cell line Calu-6
  anti-proliferative effect: without any detectable anti-proliferative effect
HUVEC [1]
  inhibition of endothelial cell migration: inhibited human endothelial cells migration in a dose dependent manner
Tumor cell line NCI-H460
  anti-proliferative effect: without any detectable anti-proliferative effect
HUVEC cells
  concentration significantly inhibiting human endothelial cell proliferation (as low as): 500 nM
HUVEC cells; 5 μM (122 μg) 497C-T2, 42 hrs, relative to control, 5 µM
  % inhibition of endothelial cell proliferation: 77% and 75%
HUVEC cells; increasing concentrations, FIG. 1
  inhibition of human endothelial cell proliferation: inhibited human endothelial cell proliferation in a dose dependent manner
[2]
  anti-proliferative effect: without any detectable anti-proliferative effect
CHO
  anti-proliferative effect: without any detectable anti-proliferative effect
HUVEC [3]; 497C-T2 0.27-2 μM, 497C-T3 […], 497C-T4 3.18 μM, 497C-T5 3.35 μM, C-terminal tail 4.14 μM
  anti-angiogenic activity, capillary tube formation: inhibited in vitro angiogenesis in a dose-dependent manner
HUVEC [3]; at 270 nM
  inhibition of in vitro angiogenesis: small inhibition
HUVEC [3]; at 540 nM
  inhibition of in vitro angiogenesis: more than 50%
HUVEC [3]; comparison with literature (Binetruy-Tournaire 2000)
  potency relative to anti-VEGF mAb and/or VEGF receptor (KDR)-based peptides: at least 200 fold
HUVEC [3]; dose-response study, read-out: IC50, inhibition of in vitro angiogenesis
  IC50: < 540 nM
CALU-6 tumors; CALU-6, monotherapy (G3) or combined with CDDP (G4)
  anti-tumoral activity: slight anti-tumoral activity
CALU-6 tumors; [4]
  Growth inhibition based on T/C ratio, T/C ratio (%) D14: 10%
  Growth inhibition based on T/C ratio, T/C ratio (%) D16: 33%
  Growth inhibition based on T/C ratio, T/C ratio (%) D18: 7%
  Growth inhibition based on T/C ratio, T/C ratio (%) D20: 13%
  Growth inhibition based on T/C ratio, T/C ratio (%) D22: 26%
  Growth inhibition based on T/C ratio, T/C ratio (%) D24: 24%
  Growth inhibition based on T/C ratio, T/C ratio (%) D26: 39%
  Growth inhibition based on T/C ratio, T/C ratio (%) D28: 27%
  MRTV D14: 1.64
  MRTV D16: 2.11
  MRTV D18: 2.34
  MRTV D20: 3.22
  MRTV D22: 3.09
  MRTV D24: 4.31
  MRTV D26: 4.60
  MRTV D28: 6.02
CALU-6 tumors; reference day, IP Q2DX8, CDDP 5 mg/kg (G2), 497C-T2 10 mg/kg (G3), 497C-T2 10 mg/kg + CDDP 5 mg/kg (G4)
  MRTV D12: 1
